Substitutions are numbered along the chain they refer to.
B1: S21 (CRM-ATBBE4) (dsDNA)
DNA 1: TTTATGTTTGACTTTTGTCATATAG
DNA 2: CTATATGACAAAAGTCAAACATAAA
B2: S15 (CRM-DJ1E) (dsDNA)
DNA 1: AGGACTTTTCACCAGTTGGACTTTGAAGCCACCAA
DNA 2: TTGGTGGCTTCAAAGTCCAACTGGTGAAAAGTCCT
B3: S24 (CRM1-WRKY30) (dsDNA)
DNA 1: TGGTCAGCATGTTGGACTTTCCAAATTCATTGACC
DNA 2: GGTCAATGAATTTGGAAAGTCCAACATGCTGACCA
B4: S22 (CRM2-WRKY30) (dsDNA)
DNA 1: GAGAGAGATAGTTTGACTTTTTGACTGAAGAACGA
DNA 2: TCGTTCTTCAGTCAAAAAGTCAAACTATCTCTCTC
B5: S15mut13 (dsDNA)
DNA 1: AGAGTCCCCCACCAGTTGAGTCCCAAAGCCACCAA
DNA 2: TTGGTGGCTTTGGGACTCAACTGGTGGGGGACTCT
B6: S15mut1 (dsDNA)
DNA 1: AGAGTCCCCCACCAGTTGGACTTTGAAGCCACCAA
DNA 2: TTGGTGGCTTCAAAGTCCAACTGGTGGGGGACTCT
B7: S15mut3 (dsDNA)
DNA 1: AGGACTTTTCACCAGTTGAGTCCCAAAGCCACCAA
DNA 2: TTGGTGGCTTTGGGACTCAACTGGTGAAAAGTCCT
B8: S15mut4 (dsDNA)
DNA 1: AGGACTTTTCACCAGTTGGACTTTGGGATTGTTGG
DNA 2: CCAACAATCCCAAAGTCCAACTGGTGAAAAGTCCT
B9: S15mut2 (dsDNA)
DNA 1: AGGACTTTTTCTTCACCAGACTTTGAAGCCACCAA
DNA 2: TTGGTGGCTTCAAAGTCTGGTGAAGAAAAAGTCCT
B10: S21mut2 (dsDNA)
DNA 1: TTTATGTTTGACTTTTACTGTATAG
DNA 2: CTATACAGTAAAAGTCAAACATAAA
B11: S21mut5 (dsDNA)
DNA 1: TTTATGTTTGACTCCCGTCATATAG
DNA 2: CTATATGACGGGAGTCAAACATAAA
B12: S21mut3 (dsDNA)
DNA 1: TTTATGTCCAGTATTTACTGTATAG
DNA 2: CTATACAGTAAATACTGGACATAAA
B13: S21mut1 (dsDNA)
DNA 1: TTTATGTCCAGTATTTGTCATATAG
DNA 2: CTATATGACAAATACTGGACATAAA
B14: S21mut4 (dsDNA)
DNA 1: TTTATGTTTAGTCCCTGTCATATAG
DNA 2: CTATATGACAGGGACTAAACATAAA
B15: S22mut4 (dsDNA)
DNA 1: GAGAGAGATAGTTTAGTCCCCCGACTGAAGAACGA
DNA 2: TCGTTCTTCAGTCGGGGGACTAAACTATCTCTCTC
B16: S22mut5 (dsDNA)
DNA 1: B4 DNA 1 with T19C, T20C
DNA 2: B4 DNA 2 with A16G, A17G
B17: S22mut3 (dsDNA)
DNA 1: GAGAGAGATAGTCCAGTCTTCCAGTCGAAGAACGA
DNA 2: TCGTTCTTCGACTGGAAGACTGGACTATCTCTCTC
B18: S22mut2 (dsDNA)
DNA 1: GAGAGAGATAGTCCAGTCTTTTGACTGAAGAACGA
DNA 2: TCGTTCTTCAGTCAAAAGACTGGACTATCTCTCTC
B19: S24mut9 (dsDNA)
DNA 1: TGGTCAGCATGTTGGACTTTCCGGGCCTGTTGACC
DNA 2: GGTCAACAGGCCCGGAAAGTCCAACATGCTGACCA
B20: S24mut7 (dsDNA)
DNA 1: TAACTGGCATGTTAAGTCCCTTAAATTCACCAGTT
DNA 2: AACTGGTGAATTTAAGGGACTTAACATGCCAGTTA
B21: S24mut8 (dsDNA)
DNA 1: TGGTCAATGCACCGGACTTTCCAAATTCATTGACC
DNA 2: GGTCAATGAATTTGGAAAGTCCGGTGCATTGACCA
B22: S24mut2 (dsDNA)
DNA 1: TAACTGGCATGTTGGACTTTCCAAATTCACCAGTT
DNA 2: AACTGGTGAATTTGGAAAGTCCAACATGCCAGTTA

What follows are binders tested against WRKY50 full length (Arabidopsis thaliana Col-0, UniProt Q8VWQ5 1-173) (assay: EMSA; EMSA with 4-5 ug recombinant protein, 32P probe, 100-fold molar excess competitor; binding buffer, salt, pH and temperature not given (cites Kanofsky et al. 2018)). Settings: label: 32P end label (as probe).
Chain of WRKY50 full length (Q8VWQ5 whole entry): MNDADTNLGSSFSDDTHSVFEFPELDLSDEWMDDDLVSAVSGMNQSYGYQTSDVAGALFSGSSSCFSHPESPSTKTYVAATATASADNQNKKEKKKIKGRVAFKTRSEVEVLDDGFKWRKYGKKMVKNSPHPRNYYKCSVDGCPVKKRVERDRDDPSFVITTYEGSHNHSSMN
B1: no binding.

Each binder was assayed against T1, WRKY50BD (Arabidopsis thaliana Col-0, UniProt Q8VWQ5 86-173) in the same assay as above. Settings: tags: His tag (pQE-30, Ni purification; tag not spelled out), label: 32P end label (as probe).
T1 sequence (Q8VWQ5 86-173): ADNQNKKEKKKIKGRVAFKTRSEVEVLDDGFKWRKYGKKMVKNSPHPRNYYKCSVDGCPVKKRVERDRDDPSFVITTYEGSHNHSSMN
B2: binds. B3: binds. B4: binds. B1: binds.

Each binder was assayed against T1, WRKY50BD (assay: competition EMSA; 100-fold excess vs S15 probe; EMSA with 4-5 ug recombinant protein, 32P probe, 100-fold molar excess competitor; binding buffer, salt, pH and temperature not given (cites Kanofsky et al. 2018)). Settings: tags: His tag (pQE-30, Ni purification; tag not spelled out).
B5: no binding. B6: binds. B7: binds. B8: binds. B9: binds.

These binders were tested against T1, WRKY50BD (assay: competition EMSA; 100-fold excess vs S21 probe; EMSA with 4-5 ug recombinant protein, 32P probe, 100-fold molar excess competitor; binding buffer, salt, pH and temperature not given (cites Kanofsky et al. 2018)). Settings: tags: His tag (pQE-30, Ni purification; tag not spelled out).
B10: binds. B11: no binding. B12: no binding. B13: no binding. B14: no binding.

What follows are binders tested against T1, WRKY50BD (assay: competition EMSA; 100-fold excess vs S22 probe; EMSA with 4-5 ug recombinant protein, 32P probe, 100-fold molar excess competitor; binding buffer, salt, pH and temperature not given (cites Kanofsky et al. 2018)). Settings: tags: His tag (pQE-30, Ni purification; tag not spelled out).
B15: no binding. B16: no binding. B17: no binding. B18: no binding.

Each binder was assayed against T1, WRKY50BD (assay: competition EMSA; 100-fold excess vs S24 probe; EMSA with 4-5 ug recombinant protein, 32P probe, 100-fold molar excess competitor; binding buffer, salt, pH and temperature not given (cites Kanofsky et al. 2018)). Settings: tags: His tag (pQE-30, Ni purification; tag not spelled out).
B19: binds. B20: no binding. B21: binds. B22: binds.

— publication PMC7811519, “Unusual DNA-binding properties of the Arabidopsis thaliana WRKY50 transcription factor at target gene promoters”
